Columns and labels:
[1] = target: the molecule itself; experiment: SEC; 16/60 Sephacryl S-300 HR gel-filtration column; molecular weight under native condition calculated from the retention volume (Kav) against a calibration curve
purified protein = substrate: O=c1[nH]c(=O)c2[nH]c(=O)[nH]c2[nH]1; experiment: purified protein; assay type: biochemical, Latimeria menadoensis; settings: 50 mM sodium borate pH 8.0, 30 °C, 15-120 µM uric acid

| Protein | stoichiometry N [1] | Km (purified protein) [µM] | kcat (purified protein) [s⁻¹] | kcat/Km (purified protein) [M⁻¹ s⁻¹] |
| --- | --- | --- | --- | --- |
| L. menadoensis uricase, wild type (LM-UOX-6His) (enzyme, UniProt M3XGK0 1-306, looked up, Uricase (urate oxidase) of Latimeria menadoensis, 306 amino acids; synthetic cDNA amplified with primers from the start codon to the last codon (no stop codon), cloned NdeI/XhoI into pET20b(+); The His6 tag is joined to the protein by two residues from the XhoI site; also called WT; WT LM-UOX; source: E. coli BL21(DE3), purified (Ni-NTA IMAC, gel filtration); not shown: His6, C-terminal, kept) MSHYVSSTRFQKDTDVEFVRTGYGKNIVKVLHIKREGKTHYIKEVEVAVQLALKSRKDYLYGDNSDIIPTDTMKNTVHALAKLKGINTIEEFAMDICEHFLTSFNHVTRANTYVEEAPWKRMEKNEVKHVHAFIYSPEATRFCEVEHHQNEPPVVHSGIKDMKVLKTTQSGFEGFVKDRFTTLPEVTDRCFSTVIYSKWLYNRSKNIDFDAAWKTVYDVIIEKFAGPYECGEYSPSVQKTLYETQVLCLNRVPEIEEVEIVMPNKHYFTIDMSKIGIVNKDEVLLPLDNPSGNITGTVRRKAHSKL | 4 | 18.43 ± 0.4 | 29.9 ± 0.3 | 1.62e+06 |
| L. menadoensis uricase I27C/N289C mutant (enzyme, UniProt M3XGK0 1-306, looked up, His6 tag joined by two residues from the XhoI site, as in m1; which cysteines pair (C27 with C289 of the other subunit of a dimer) is a prediction only; source: E. coli BL21(DE3), purified (Ni-NTA IMAC, gel filtration); not shown: His6, C-terminal, kept) MSHYVSSTRFQKDTDVEFVRTGYGKNCVKVLHIKREGKTHYIKEVEVAVQLALKSRKDYLYGDNSDIIPTDTMKNTVHALAKLKGINTIEEFAMDICEHFLTSFNHVTRANTYVEEAPWKRMEKNEVKHVHAFIYSPEATRFCEVEHHQNEPPVVHSGIKDMKVLKTTQSGFEGFVKDRFTTLPEVTDRCFSTVIYSKWLYNRSKNIDFDAAWKTVYDVIIEKFAGPYECGEYSPSVQKTLYETQVLCLNRVPEIEEVEIVMPNKHYFTIDMSKIGIVNKDEVLLPLDCPSGNITGTVRRKAHSKL | 4 | 35.39 ± 0.1 | 32.58 ± 0.2 | 920000 |
| L. menadoensis uricase A132C/A225C mutant (enzyme, UniProt M3XGK0 1-306, looked up, His6 tag joined by two residues from the XhoI site, as in m1; source: E. coli BL21(DE3), purified (Ni-NTA IMAC, gel filtration); not shown: His6, C-terminal, kept) MSHYVSSTRFQKDTDVEFVRTGYGKNIVKVLHIKREGKTHYIKEVEVAVQLALKSRKDYLYGDNSDIIPTDTMKNTVHALAKLKGINTIEEFAMDICEHFLTSFNHVTRANTYVEEAPWKRMEKNEVKHVHCFIYSPEATRFCEVEHHQNEPPVVHSGIKDMKVLKTTQSGFEGFVKDRFTTLPEVTDRCFSTVIYSKWLYNRSKNIDFDAAWKTVYDVIIEKFCGPYECGEYSPSVQKTLYETQVLCLNRVPEIEEVEIVMPNKHYFTIDMSKIGIVNKDEVLLPLDNPSGNITGTVRRKAHSKL | 4 | 39.19 ± 0.5 | 58.2 ± 0.6 | 1.49e+06 |
| L. menadoensis uricase S136C mutant (enzyme, UniProt M3XGK0 1-306, looked up, Uricase (urate oxidase) of Latimeria menadoensis, 306 amino acids, same construct as the wild type (pET20LM-UOX) with S136C by site-directed mutagenesis; His6 tag joined by two residues from the XhoI site, as in m1; source: E. coli BL21(DE3), purified (Ni-NTA IMAC, gel filtration); not shown: His6, C-terminal, kept) MSHYVSSTRFQKDTDVEFVRTGYGKNIVKVLHIKREGKTHYIKEVEVAVQLALKSRKDYLYGDNSDIIPTDTMKNTVHALAKLKGINTIEEFAMDICEHFLTSFNHVTRANTYVEEAPWKRMEKNEVKHVHAFIYCPEATRFCEVEHHQNEPPVVHSGIKDMKVLKTTQSGFEGFVKDRFTTLPEVTDRCFSTVIYSKWLYNRSKNIDFDAAWKTVYDVIIEKFAGPYECGEYSPSVQKTLYETQVLCLNRVPEIEEVEIVMPNKHYFTIDMSKIGIVNKDEVLLPLDNPSGNITGTVRRKAHSKL | 4 | 15.28 ± 0.1 | 22.49 ± 0.1 | 1.47e+06 |
| L. menadoensis uricase D288C mutant (enzyme, UniProt M3XGK0 1-306, looked up, Uricase (urate oxidase) of Latimeria menadoensis, 306 amino acids, same construct as the wild type (pET20LM-UOX) with D288C by site-directed mutagenesis; His6 tag joined by two residues from the XhoI site, as in m1; source: E. coli BL21(DE3), purified (Ni-NTA IMAC, gel filtration); not shown: His6, C-terminal, kept) MSHYVSSTRFQKDTDVEFVRTGYGKNIVKVLHIKREGKTHYIKEVEVAVQLALKSRKDYLYGDNSDIIPTDTMKNTVHALAKLKGINTIEEFAMDICEHFLTSFNHVTRANTYVEEAPWKRMEKNEVKHVHAFIYSPEATRFCEVEHHQNEPPVVHSGIKDMKVLKTTQSGFEGFVKDRFTTLPEVTDRCFSTVIYSKWLYNRSKNIDFDAAWKTVYDVIIEKFAGPYECGEYSPSVQKTLYETQVLCLNRVPEIEEVEIVMPNKHYFTIDMSKIGIVNKDEVLLPLCNPSGNITGTVRRKAHSKL | 4 | 189.65 ± 0.2 | 65.07 ± 0.3 | 340000 |
| L. menadoensis uricase N289C mutant (enzyme, UniProt M3XGK0 1-306, looked up, Uricase (urate oxidase) of Latimeria menadoensis, 306 amino acids, same construct as the wild type (pET20LM-UOX) with N289C by site-directed mutagenesis; His6 tag joined by two residues from the XhoI site, as in m1; source: E. coli BL21(DE3), purified (Ni-NTA IMAC, gel filtration); not shown: His6, C-terminal, kept) MSHYVSSTRFQKDTDVEFVRTGYGKNIVKVLHIKREGKTHYIKEVEVAVQLALKSRKDYLYGDNSDIIPTDTMKNTVHALAKLKGINTIEEFAMDICEHFLTSFNHVTRANTYVEEAPWKRMEKNEVKHVHAFIYSPEATRFCEVEHHQNEPPVVHSGIKDMKVLKTTQSGFEGFVKDRFTTLPEVTDRCFSTVIYSKWLYNRSKNIDFDAAWKTVYDVIIEKFAGPYECGEYSPSVQKTLYETQVLCLNRVPEIEEVEIVMPNKHYFTIDMSKIGIVNKDEVLLPLDCPSGNITGTVRRKAHSKL | 4 | 30.46 ± 0.1 | 34.06 ± 0.1 | 1.12e+06 |

Reference: publication PMC6471336, “Production and Characterization of Recombinant Wild Type Uricase from Indonesian Coelacanth (L. menadoensis) and Improvement of Its Thermostability by In Silico Rational Design and Disulphide Bridges Engineering” (International Journal of Molecular Sciences, 2019)
